# Results as given in patent publication US20160185837A1, “GIP AND GLP-1 RECEPTOR DUAL-AGONISTS FOR THE TREATMENT OF DIABETES” (Medimmune Limited, priority 2013, published 2016).
# Key:
# Experiment in all cases: cell-based or functional assay
# rat GLP-1 receptor (rat) = rat GLP-1 receptor (rat) (UniProt P32301)
# [1] = target: mouse GLP-1 receptor (mouse) (UniProt O35659)
# [2] = target: cynomolgus monkey GLP-1 receptor (cynomolgus monkey) (UniProt F8V479)
# [3] = target: cynomolgus monkey glucagon receptor (cynomolgus monkey)
# [4] = target: T1, human GIP receptor (human) (UniProt P48546)
# T1 sequence (looked up): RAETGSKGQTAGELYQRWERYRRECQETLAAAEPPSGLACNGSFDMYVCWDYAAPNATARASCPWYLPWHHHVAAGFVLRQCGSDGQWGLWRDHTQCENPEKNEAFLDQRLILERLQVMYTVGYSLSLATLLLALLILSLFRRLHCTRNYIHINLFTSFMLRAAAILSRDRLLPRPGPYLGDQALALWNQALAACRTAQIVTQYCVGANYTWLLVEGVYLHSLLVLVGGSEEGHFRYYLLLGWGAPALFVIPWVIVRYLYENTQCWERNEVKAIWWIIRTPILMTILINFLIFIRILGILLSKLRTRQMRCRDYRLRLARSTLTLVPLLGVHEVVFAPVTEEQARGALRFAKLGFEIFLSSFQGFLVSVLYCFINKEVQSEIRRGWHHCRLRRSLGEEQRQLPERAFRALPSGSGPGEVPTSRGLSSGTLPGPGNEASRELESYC
# Chain of mouse GLP-1 receptor (mouse) (O35659 22-463): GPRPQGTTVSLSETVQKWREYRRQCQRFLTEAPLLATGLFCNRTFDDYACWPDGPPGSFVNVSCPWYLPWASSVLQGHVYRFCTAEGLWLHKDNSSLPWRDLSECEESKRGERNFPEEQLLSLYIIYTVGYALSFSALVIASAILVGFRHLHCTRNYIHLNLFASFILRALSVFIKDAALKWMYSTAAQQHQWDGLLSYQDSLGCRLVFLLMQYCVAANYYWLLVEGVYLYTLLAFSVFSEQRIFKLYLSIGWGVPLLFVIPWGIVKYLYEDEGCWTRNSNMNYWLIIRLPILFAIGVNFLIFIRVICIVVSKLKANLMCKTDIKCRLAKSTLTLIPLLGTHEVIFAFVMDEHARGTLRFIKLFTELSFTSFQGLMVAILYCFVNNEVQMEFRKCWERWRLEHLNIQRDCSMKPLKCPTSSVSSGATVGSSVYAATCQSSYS
# Chain of rat GLP-1 receptor (rat) (P32301 22-463): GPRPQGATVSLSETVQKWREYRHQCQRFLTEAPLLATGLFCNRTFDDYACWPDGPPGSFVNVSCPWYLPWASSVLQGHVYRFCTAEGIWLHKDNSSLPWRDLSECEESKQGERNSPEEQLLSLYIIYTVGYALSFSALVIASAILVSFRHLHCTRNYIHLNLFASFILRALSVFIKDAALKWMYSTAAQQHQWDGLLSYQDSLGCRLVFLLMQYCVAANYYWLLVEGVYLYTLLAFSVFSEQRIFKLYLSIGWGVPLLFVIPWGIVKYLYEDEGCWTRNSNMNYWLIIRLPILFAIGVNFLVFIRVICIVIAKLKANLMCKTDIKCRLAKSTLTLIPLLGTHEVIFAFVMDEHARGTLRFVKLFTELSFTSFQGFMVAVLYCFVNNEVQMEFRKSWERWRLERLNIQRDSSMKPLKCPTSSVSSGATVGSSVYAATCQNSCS
# Chain of cynomolgus monkey GLP-1 receptor (cynomolgus monkey) (F8V479 entry or part of it): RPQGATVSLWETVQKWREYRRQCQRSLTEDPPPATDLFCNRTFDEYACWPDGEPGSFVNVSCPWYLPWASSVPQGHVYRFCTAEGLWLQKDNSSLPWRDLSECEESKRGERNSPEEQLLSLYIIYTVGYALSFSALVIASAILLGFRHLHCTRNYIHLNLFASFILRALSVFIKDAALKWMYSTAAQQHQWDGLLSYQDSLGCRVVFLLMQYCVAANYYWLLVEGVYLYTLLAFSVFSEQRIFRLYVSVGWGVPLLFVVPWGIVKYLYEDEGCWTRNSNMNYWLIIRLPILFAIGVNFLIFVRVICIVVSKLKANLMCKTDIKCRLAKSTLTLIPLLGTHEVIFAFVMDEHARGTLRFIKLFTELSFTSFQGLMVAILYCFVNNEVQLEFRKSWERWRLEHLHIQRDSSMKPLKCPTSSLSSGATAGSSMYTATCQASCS
substance,measurement,setting,value
glucagon (from UniProt P01275 53-81) (peptide),cAMP EC50,rat GLP-1 receptor (rat),0.54 nM
same,cAMP EC50,[1],1.8 nM
liraglutide (peptide),"cAMP EC50, 4.2% cyno serum albumin",[2],0.025 nM
same,"cAMP EC50, 4.2% cyno serum albumin",[3],> 1000 nM
human GIP (peptide),cAMP EC50,[4],0.0047 nM
